Results: PMC5269641

Tests used:
[1] = target: subunit of the light-harvesting 2 (LH2) complex (Rhodobacter sphaeroides); experiment: atomic force microscopy; tapping mode AFM of reconstituted flat LH2 membranes (2D crystals) immobilised on a mica substrate, same approach as for chromatophores
[2] = target: subunit of the light-harvesting 2 (LH2) complex (Rhodobacter sphaeroides); experiment: as above; remark: listed apart in the source
[3] = target: subunit of the light-harvesting 2 (LH2) complex (Rhodobacter sphaeroides); experiment: atomic force microscopy; tapping mode AFM of intact native chromatophore vesicles immobilised on mica; imaging buffer 300 mM KCl/20 mM MOPS pH 7.4, with and without 10 mM MgCl2; proteins in their native membrane
[4] = target: subunit of the light-harvesting 2 (LH2) complex (Rhodobacter sphaeroides); experiment: as above; remark: listed apart in the source
[5] = target: reaction center-light harvesting 1-PufX (RC-LH1-PufX) complex (Rhodobacter sphaeroides) (UniProt P0C0Y7); experiment: as above

stoichiometry N [1]	stoichiometry N [2]	stoichiometry N [3]	stoichiometry N [4]	stoichiometry N [5]	Substance
9	8.3	9	8.6		subunit of the light-harvesting 2 (LH2) complex
				2	reaction center-light harvesting 1-PufX (RC-LH1-PufX) complex (from UniProt P0C0Y7 1-260; P13402 1-82)
